The data set can be described thus: label from the status in PepcDB records.
In the case of “MIRTAKRTELIEVAQGRRPADIVIKGGTVVNVYSGEFLRQNVAIYHDAIAYVGEKEVAVDEHTIVIDAEGMYVSPGFIEPHAHPWVLYNPVSMTAKVLPLGTTTTVNDNLFFYLHFGVDGFRQLIEDLRVLPGHFFWLVRLVSQADFPGERDWFDPRHIQELLAMDEVVGTAEVTRWPLLYQGDPFLLETIEAAKRAGKVVDGHTAGCSYEKLNSIAASGVSACHEAITAEEALHRLRLGMWTTLRHSSLRPDFPEIIRLITEKKVSTQRITMTTDGPHPGFIEREGFVDGLVRKAVELGVPPMTALQMATINAATYLQLDDEIGGIAPGKLADILLLPDLVTFQPSLVIAKGRIVARDGKLLAPLPEIDWKRYVSKKPFLFAKERLDDERLYRYPHSESDQPVPVMYFKSNVITERKDVALPSVDGYADLSHHPGLLYAALIDRNGQWVAKAILERFALDIDGMASTYNTTTELLVIGKQPEAMAAAAKRVLEMGGGIVVIDGGRPVVEIPLPFTGMMTTDDSFDTAVRFHDELLSALQERGFPFHDILYTLLFLTCDFLPGLRLIPYGLYDVKRNEILLPAEKIGEKVVK”, the protein production entry is given as “failed”.

In the case of “MISAWLLVLISITYISLLFLIAWAGDRHPGLYKRRLARTHIYGLSLAVYFTSWTFYGAVGRATQEGLAFLPIYLGPLLVFIFFAPLLRRIIYISKRNNSTSIADFIASRYGKSQVLAAMVAIFALIGSVPYIALQLKAIALGFNVLSGTGDSYQELSTAAWNDSAWYITLALAVFTVLFGTRHLESTEHHRGMIQAVAFESLIKLIAFVAVGLFVGYGLYDGFGDLFTRVREADLMGTLTTESLEAPAFLTQTLVAMLAIICLPRQFHVMVVENTDHRDFEVARWAMPIYLIIASAFVIPIAAAGLLSTHLAGSDPDIVILQLPIMAGEHWLAVLAFLGGGSAAAAMVIVCSVAIATMVSNEIIMPGLLKFFRPGMNRRTDLSFLLLTIRRVAIFVVLLTAYGFYRMAGEDYSLTAFGLLSFAAAAQFGPALVGGILWRQGNFTGAAWGLGLGFLMWCYTLLLPALVSTGWVADTLIEHGLFGWNWTRPTALFGSELDQISHGILWSLGVNTGAYILLSLITRQRIREKIQIAAFFHDAQPKAENAQHQSWQGEILTSDLQALTDRFMGEERSESIFRNYERRNAIRLYPQRPASTHLMKYIERQLASVIGASTARVVLESTLTGRDMQIEDVVSIVDEASQAMTFSRELLQSAIENISLGVSVVNHQQQLVVWNHRYLELFNYPKGFVRVGRPVEDLMRYNLTNANLSARRIDDIVENRCNSMREGKPMSYERQRPDGTVVRVDGSPIPGGGYVTTFQDITAMRRTEQALKETNIYLEQRVRERTQELQVINEQMLKAKSVAEQANQSKTRFLASASHDLLQPLNAARLFTSALSGKVNEGETRDLVDHIDSSLGAAEEIISTLLDISKLDAGALEPDIGVFPVNELLRHLATEFSAIAKDQGLELHVVPSTAWVRSDAKLLRRVVQNFLSNAIRYTASGKILMGCRRLKGYLRIEVWDTGPGMSDDQLNHIFEEFRRFQHGRDKKGLGLGLAIVDRISGMLNHPVTVHSIQGKGSVFGITVPVAPADQSRLDAQKSGSSSRRVSNLGGLHVLCIDNDAAILQGMVALLGNWQCDVTAAESLDDALTKLDGRQPDIILADYQLDDNRNGLDAMDSIREHLGNDIPGILITGYMAPEVRDDAGNRGYQVLYKPVKPAALRALVNKLLKQKRS”, the protein production result is reported as “failed”.

For “MISGDTLSAKKPKSVPQEEDQDPPSQSIALLDNHTDSSGSDSSTRSISSCFIFTSLLLVTCIALSAASAFAFLFFSSQKPVLSLNQISKSPAFDRSVARPLKKLDKPVVLLISSDGFRFGYQFKTKLPSIHRLIANGTEAETGLIPVFPTLTFPNHYSIVTGLYPAYHGIINNHFVDPETGNVFTMASHEPEWWLGEPLWETVVNQGLKAATYFWPGSEVHKGSWNCPQGLCQNYNGSVPFDDRVDTILSYFDLPSNEIPSFMTLYFEDPDHQGHQVGPDDPQITEAVVNIDRLIGRLIDGLEKRGIFEDVTMIMVGDHGMVGTCDKKLVVLDDLAPWIKIPSSWVQYYTPLLAIQPPSGHDAADIVAKINEGLSSGKVENGKYLKVYLKEDLPSRLHYVDSDRIPPIIGLVDEGFKVEQKKSKAKECGGAHGYDNAFFSMRTIFIGHGPMFSKGRKVPSFENVQIYNVISSILGLKAAPNNGSDEFSSSILLPRV”, the protein production result is reported as “failed”.

Consider “MISGFSMHSSAHYRQLLARLPQIAVAADQFEVLNSAKDFKSRILSLIASARQRIYLVALYLQDDEAGREILSALYAAKQRNPALDVKVFVDFHRAQRGLIGKGKQGGNHLMYQEMAARHEHQIAIYGVPVKGRELLGVLHLKGFIFDDTLLYSGASLNDIYLHQQDRYRFDRYHQITSPELTRSMVNYVDDLFLRSEAVQRLDRTDIPSAKQLKGPIRRFKHNLRLGQYRFDTMPVNSQEVAITPMSGLGKRGNQLNKMIRTLVRATEREIFICTPYFNPPKELNKDIEALLKRGCKVTIVVGDKTANDFFIPPEEKFSTIGGLPYLYETNLRKFAERNQHHIDAGRLNLMLWCCERNSYHLKGIFVDDEWALLTGNNLNPRAWALDLENGLLVYDRRHLLRPQFNAERENILANTKRISHFDQIEQIQDYPDQVRKLLARIHRVKAHILLKRII”, for which the protein production result was “failed”.

For “MISGISGILCVVLVSKGKISNYFFGLIFAYTYFYVAWGSNFLGEMNTVLYVYLPSQFIGYFMWKANMQNSDGGESVIAKALTVKGWMTLIVVTTVGTLLFVQALQAAGGSSTGLDGLTTIITVAAQILMILPLS”, the protein production entry was “failed”.

On to “MISGSATASHGRVLLPSQRERRPVSTGSNILRFRETVPRQFSLMMVTKATAKYMGTKMREEKLSEMIEEKVKEATEVCEAEEMSEECRVAWDEVEEVSQARADLRIKLKLLNQDPLESFCQENPETDECRIYED”, for which the protein production entry is “failed”.

Consider “MISNNPNHTEYDTWAWLYNQTMGPEYSQNQLKPLEKILLPQIKPNAKILDLCCGTGQLVQTLINRGYQITGVDNSSEMLNYARKNAPNGQFLLADARYFELPLSFDAAFSTSAALNHIMTIPELQQVFQRVYSALKENGWFLFDINHHQQMQRWWRGKIAEGEIENKYAWMVTPNYNPEERQGYFQVTMFQKKTKPSSARIIKIIWRLLSPILNHNLLYKLRIKLLSVFQAKEKNWQRMDEKYFVRGHIPEEIKIALQQTGFTDIQILTLEGNPTIDDRHSAYFLCRKPVNI”, for which the protein production result is given as “failed”.

For the sequence “MISSLSASSSLVSSFVAVKATPVTGPLIPRRDLLSIRIRASSNQNSSGYCFPEKFKSFAKSAILIGAAVSMTGKFSTLPVKAESPVTTIEKTYEEVKEEKLSEITPLSELLDSTPEAVETLRSLLQQKLEKGEDEEALKLLERLVAAQPEETEWKFLMARLLGEMGRPENARQMFEEILQRNPLSFEALFENALLMDRSGEGNAVLQRLEDALAVAEAEYLVKEARDVRLIIAQIHFLQKNVDEALKSYEQLTKEDPKDFRPYFCRGMIYSLLDKNVEAKEQFAKYRELSPKKFEVEGYLRTPLSKMKLFGGSEEN”, the protein production entry is recorded as “failed”.

Take “MISVAQYLEAATRPNTERAYAAATRHFEIEWGGHLPTTAEQVARYLAAYAGQLALNTLRHRLAALAQWHQAHGFADPTRAPVVRKVLKGIQTVHPSQEKRATPLQLTQLGQVVDWLDGAATAAGTRDDAAGRLRHMRDRAFVLLGFWRGFRGDELVRLQVQDLELVAGEGMTCFLPHSKSDRQHAGTTYKVPALSRWCPVAATMAWVAAAALHEGPLFRAVNQWGGIAAAPLHPNSLVPLLRRIFREAGLSSPNDYSGHSLRRGFAGWANANGWDVKALMEYVGWRDVHSAMRYLDGADPFARQRIEASVSPATPPLLALAAPAPDPVPTTAVEATVTLTRFNSRVRGLAKAHRLIEQICLQPHQAQRLNADGTRYRLAIAAVDEAAFEETIAMLLDEMHRIADNHQCFLAVALRDEAGGRHWD”: the protein production result is “failed”.

On to “MITIDPEYFEILKEFGAERVVRCYQCGTCTGICPVSTTDASFPRKPVLLSRFGVGEVIENFEEAWLCLSCNLCTEFCPRDVKPSETMLAIKRVLVENGKTPPYIRDFFQNIMKQKNPWGIGKFKREDWVKKSDVEVPKVKDNPEYEWLWFVGCAHAFENRNINVTLKMARILSDLGINFATLGREEGCCGNDVRRAGEEGLFEVLMEENIKTFGKYGVQRLFTHSPHCFNAFKNWYEGYEVKLFLEILRDAIKSGKLELKNKLDLTVTYHDSCYLGRYNGIYDLPREVLKLIPGVELVEMKSNRRMSLCCGGGAGNIVGDYPGEIQPARVRAQEAAETGANVLAVACPFCLLMLEDGVKTEKLDKQLVVKDIVELVYEAAYGEE”, for which the protein production entry is given as “failed”.

Take “MITLAQAEVGKVYTVESVQADIQTKKHLNNLGVVAGQAVVLVNYQNQNGIVLLHNSRIALTDTILQAIHVEERSANEKVWVSLDTLKVGERATIVGIHGQGAVKRRLMDMGLTKGTVIFIRKVAPLADPIEINVRGYELTLRKSEAELILVEKEESELEHHHHHH”: the protein production result is “failed”.

For the origin of these results see a protein production outcome set (Wang et al. 2014).
